Source: publication PMC12476982

Columns and labels:
Experiment in all cases: fluorescence polarization
Details in all cases: FP: 10 nM Cy5 nucleosome in Buffer B (composition not in material) except 60 mM NaCl, quadratic fit, EMSA: 15 nM nucleosome, 15 min, room …
PBAF (human) = system: PBAF (human)
cBAF (ARID1A) (human) = system: cBAF (ARID1A) (human)
ncBAF (human) = system: ncBAF (human)
BRG1 (human) = system: BRG1 (human)

Cy5 mononucleosome, 197-bp 601 DNA
Kd (PBAF (human)): 82 nM
Kd (cBAF (ARID1A) (human)): 45 nM
Kd (ncBAF (human)): 17 nM
Kd (BRG1 (human)): 115 nM
